In patent US20030157533A1, “Nucleic acid labeling by Thermoanaerobacter thermohydrosulfuricus DNA polymerase I variants” (priority 2001, published 2003):

Tests used:
Type in all cases: biochemical
[1] = system: defined DNA template-DNA primer; assay: Single nucleotide incorporation of dye-dCTP during DNA dependent DNA synthesis (FIG. 13); conditions: lower concentrations (0.2 uM or lower) of dye-dCTP
Method: (§1) Optimized 1×buffer compositions for Reverse Transcriptase (RNA dependent DNA Polymerase) and DNA Polymerase (DNA dependent DNA polymerase) reactions for all variants of Tts Pol I are as follows. Tris, pH 8.0 (50 mM), KCl (40 mM), MgCl2 (3 mM), DTT (1 mM), DNA or RNA template (as needed), primer (5 to 50 femto mols), enzyme 0.5 to 1 units, dNTP or dNTP analog (varying concentrations as needed). In standard synthesis reactions, when full-length synthesis is monitored, 50 uM of all 4 dNTPs are included. Typical reaction volume is 10 ul. Reaction temperature was kept between 37-60 C. depending on the experimental needs. Reaction time was limited to 10 minutes for single nucleotide incorporation studies. Time was varied as needed for the purpose of the experiments, sometimes up to 1 hour if longer extensions are monitored.
Primer extension was monitored using a defined DNA template-DNA primer.
In this experiment the relative efficiencies of incorporation of dye-CTP (Cy3.5-dCTP) was investigated. Three enzyme preparations were tested ΔTts, ΔTtsF412Y, and ΔTtsF412YD426R
Defined DNA shown below served as the template. A P-33 labeled primer (DNA 25 mer) was annealed to the template. Reactions were performed with varying concentrations of either Cy3.5-dCTP or dCTP alone. Inclusion of only one dNTP allowed incorporation of the next correct nucleotide alone. The sequence of the template-primer that allowed for the examination of single nucleotide “C” incorporation is shown below.
Lanes 1, 2, 3, 4 and 5 contain 20, 2, 0.2, 0.02 and 0 uM dye-dCTP. Lane 5 has no enzyme, to show the integrity of the starting p-33 labeled primer. Quantification of the single nucleotide extension product is one way to tell if DR change in the enzyme led to any consequence. “P” indicates a radio labeled primer. “P+1” represents the elongated product by a single nucleotide or nucleotide analog. P+1 migrates slowly with the dye-dNTP conjugate. Note that the migration of Cy3.5-dCTP containing band travel slowly on the gel compared to dCMP extended products. […] P+1 product is achieved between 10-100 fold less concentration of dye-dCTP with the enzyme having the DR change. Essentially, incorporation is achieved at a much lower concentration of dye-dNMP compared to the wild type enzyme. It is evident that the DR enzyme was able to incorporate Cy3.5-dCTP at concentrations as low as 0.2 uM or even lower.

[2] = system: Globin mRNA template annealed to P-33 labeled primer; assay: Single nucleotide incorporation of Cy3.5-dCTP or dCTP on RNA template (reverse transcriptase reaction, FIG. 7); conditions: lower concentrations (0.2 uM or lower) of dye-CTP
Method: The experiment shown in FIG. 7 investigates the relative efficiencies of incorporation of dye-CTP (Cy3.5-dCTP) and dCTP. Three enzyme preparations ΔTts, ΔTts F412Y, ΔTtsF412YD426R were analyzed in this experiment.
as §1
The experiment shown in FIG. 7 investigates the relative efficiencies of incorporation of dye-CTP (Cy3.5-dCTP) and dCTP. Three enzyme preparations ΔTts, ΔTtsFY, ΔTtsF412YD426R were analyzed in this experiment.
In FIG. 7, Globin mRNA served as the template. A 5′ P-33 labeled primer (DNA 25-mer) was annealed to the template. Reactions were performed with varying concentrations of either Cy3.5-dCTP or dCTP alone. Inclusion of only one dNTP allowed incorporation of the next correct nucleotide alone. The sequence of the template-primer that allowed for the examination of single nucleotide “C” incorporation is shown below.
Lanes 1,2,3 and 4 contain 20, 2, 0.2, and 0.02 uM of dNTP or dye-dNTP. Lane with no label has no enzyme, to show the integrity of the starting P-33 labeled primer. Quantification of the single nucleotide extension product is one way to tell if DR change to in the enzyme led to any consequence. “P” indicates a radio labeled primer. “P+1” represents the elongated product by a single nucleotide or nucleotide analog. P+1 migrates slowly with the dye-dNTP conjugate. Note that the migration of Cy3.5 dCMP containing bands travel slowly on the gel compared to dCTP extended products. […] Essentially, incorporation is achieved at lower concentrations (less than 10 times) of dye-dNTP compared to that of the wild type polymerase. It is evident that the DR enzyme was able to incorporate Cy3.5 dCTP at concentrations as low as 0.2 uM (Cy3.5 dCTP) or even lower. […] In this experiment the template-primer is a mRNA annealed to radio labeled primer. Extension is monitored qualitatively as P+1 for the natural nucleotides and P+1* for dye labeled nucleotide. This is a promising first observation for potential use in microarray applications for cDNA probe labeling.

Globin mRNA = assay: Direct RNA sequencing (FIG. 8); conditions: compared to retroviral reverse transcriptases
Description: Globin mRNA served as a template. The 50-mer DNA was used a primer. Standard sequencing components in Amersham Pharmacia Thermo Sequenase kit were employed for sequencing. P-33 labeled terminators (ddNTP) were obtained from Amersham Pharmacia Biotech. Post-sequencing reaction products were separated on 6% urea-polyacrylamide gels. AMV, Avian Myeloblastosis virus RT.

Molecule | incorporation of Cy3.5-dCTP (qualitative, P+1 band) [1] | incorporation of Cy3.5-dCTP (qualitative, P+1 band) [2] | quality of sequence information from short stretches of RNA (Globin mRNA)
D enzyme: 5′-3′ exonuclease deficient amino-terminally truncated Tts DNA polymerase I with unaltered aspartate at 426 (SEQ ID No. 3) (protein, listed as Thermoanaerobacter thermohydrosulfuricus) MYKFLIIDGSSLMYRAYYALPMLTTSEGLPTNALYGFTMMLIKLIEEEKPDYIAIAFDKKAPTFRHKEYQDYKATRQAMPEELAEQVDYLKEIIDGFNIKTLELEGYEADDIIGTISKLAEEKGMEVLVVTGDRDALQLVSDKVKIKISKKGITQMEEFDEKAILERYGITPQQFIDLKGLMGDKSDNIPGVPNIGEKTAIKLLKDFGTIENLIQNLSQLKGKIKENIENNKELAIMSKRLATIKRDIPIEIDFEEYKVKKFNEEKLLELFNKLEFFSLIDNIKKESSIEIVDNHKVEKWSKVDIKELVTLLQDNRNIAFYPLIYEGEIKKIAFSFGKDTVYIDVFQTEDLKEIFEKEDFEFTTHEIKDFLVRLSYKGIECKSKYIDTAVMAYLLNPSESNYDLDRVLKKYLKVDVPSYEGIFGKGRDKKKIEEIDENILADYICSRCVYLFDLKEKLMNFIEEMDMKKLLLEIEMPLVEVLKSMEVSGFTLDKEVLKELSQKIDDRIGEILDKIYKEAGYQFNVNSPKQLSEFLFEKLNLPVIKKTKTGYSTDSEVLEQLVPYNDIVSDIIEYRQLTKLKSTYIDGFLPLMDENNRVHSNFKQMVTATGRISSTEPNLQNIPIREEFGRQIRRAFIPRSRDGYIVSADYSQIELRVLAHVSGDEKLIESFMNNEDIHLRTASEVFKVPMEKVTPEMRRAAKAVNFGIIYGISDYGLSRDLKISRKEAKEYINNYFERYKGVKDYIEKIVRFAKENGYVTTIMNRRRYIPEINSRNFTQRSQAERLAMNAPIQGSAADIIKMAMVKVYNDLKKLKLKSKLILQVHDELVVDTYKDEVDIIKKILKENMENVVQLKVPLVVEIGVGPNWFLAK | relatively poor incorporation | relatively poor incorporation | 
Tts F412Y: exonuclease deficient truncated Tts DNA polymerase I with F to Y change at position 412 (SEQ ID No. 5) (protein, listed as Thermoanaerobacter thermohydrosulfuricus) MYKFLIIDGSSLMYRAYYALPMLTTSEGLPTNALYGFTMMLIKLIEEEKPDYIAIAFDKKAPTFRHKEYQDYKATRQAMPEELAEQVDYLKEIIDGFNIKTLELEGYEADDIIGTISKLAEEKGMEVLVVTGDRDALQLVSDKVKIKISKKGITQMEEFDEKAILERYGITPQQFIDLKGLMGDKSDNIPGVPNIGEKTAIKLLKDFGTIENLIQNLSQLKGKIKENIENNKELAIMSKRLATIKRDIPIEIDFEEYKVKKFNEEKLLELFNKLEFFSLIDNIKKESSIEIVDNHKVEKWSKVDIKELVTLLQDNRNIAFYPLIYEGEIKKIAFSFGKDTVYIDVFQTEDLKEIFEKEDFEFTTHEIKDFLVRLSYKGIECKSKYIDTAVMAYLLNPSESNYDLDRVLKKYLKVDVPSYEGIFGKGRDKKKIEEIDENILADYICSRCVYLFDLKEKLMNFIEEMDMKKLLLEIEMPLVEVLKSMEVSGFTLDKEVLKELSQKIDDRIGEILDKIYKEAGYQFNVNSPKQLSEFLFEKLNLPVIKKTKTGYSTDSEVLEQLVPYNDIVSDIIEYRQLTKLKSTYIDGFLPLMDENNRVHSNFKQMVTATGRISSTEPNLQNIPIREEFGRQIRRAFIPRSRDGYIVSADYSQIELRVLAHVSGDEKLIESFMNNEDIHLRTASEVFKVPMEKVTPEMRRAAKAVNYGIIYGISDYGLSRDLKISRKEAKEYINNYFERYKGVKDYIEKIVRFAKENGYVTTIMNRRRYIPEINSRNFTQRSQAERLAMNAPIQGSAADIIKMAMVKVYNDLKKLKLKSKLILQVHDELVVDTYKDEVDIIKKILKENMENVVQLKVPLVVEIGVGPNWFLAK | decreased incorporation | decreased incorporation | excellent sequence information
